In patent US9993566B2, “SEZ6 modulators and methods of use” (AbbVie Stemcentrx LLC, priority 2013, dated 2018):

Columns and labels:
cynomolgus SEZ6 = assay: Flow cytometry cross reactivity, yeast displaying extracellular domain of cynomolgus SEZ6; format: binding; details: 5 μg/mL antibody
Experimental: (§1) In this regard flow cytometry was performed using a FACSCanto II as per the manufacturer's instructions in order to confirm that selected SC17 antibody modulators can immunospecifically associate with human SEZ6 and to determine whether the same modulators cross-react with cynomolgus, rat and/or murine SEZ6 in addition to SEZ6L and SEZ6L2. More particularly modulators were tested for cross reactivity to murine SEZ6 and rat SEZ6 by flow cytometry against Neuro2a (ATCC Cat # CCL131), and RIN-m5F (ATCC cat # CRL-11605) cell lines which express mouse SEZ6 and rat SEZ6, respectively. For examining cross reactivity to cynomolgus SEZ6, yeast displaying the extracellular domain of cynomolgus SEZ6 (Boder et al, 1997) were used for flow cytometry analysis.
(§2) Briefly 1×10^5 cells per well of Neuro2a, RIN-5mF, or yeast displaying cynomolgus SEZ6 cells were incubated for 30 minutes with 50 μL PBS (2% FCS) buffer with 5 μg/mL antibody. Cells were washed twice with the same buffer and then incubated with 50 μL per sample DyLight 649 labeled goat-anti-mouse IgG, Fc fragment specific secondary diluted 1:200 in PBS buffer. After incubating for 15 minutes cells were washed twice with the PBS buffer and re-suspended in the same with DAPI for flow cytometry analysis of Neuro2a and Rin-m5F or buffer without DAPI for flow cytometric analysis of yeast cells with cSEZ6.

SEZ6 ECD = target: T1, SEZ6 ECD (Homo sapiens, UniProt Q53EL9); assay: Fine epitope mapping (phage display peptide library or yeast-displayed SEZ6 ECD mutants); format: binding; details: epitope conformational (discontinuous) or linear
T1 construct: SEZ6 extracellular domain (amino acids 1-904); expressed in transfected cells; host or cells: yeast (surface display, Cochran et al. protocol)
Experimental: Epitopes were classified either as conformational (i.e. discontinuous) or linear. Yeast displaying the SEZ6 ECD construct was heat treated for 30 minutes at 80° C. in order to denature the antigen, washed twice in ice-cold PBSA and then subjected to the same staining protocol and flow cytometry analysis as described above. Antibodies that bound to both the denatured and native yeast were classified as binding to a linear epitope, whereas antibodies that bound native yeast but not denatured yeast were classified as conformationally specific.
Fine epitope mapping was further performed on selected antibodies to determine the specific amino acids to which they bound. Antibodies that bound to a linear epitope were mapped using the Ph.D.-12 phage display peptide library kit (New England Biolabs E8110S). The antibody selected for epitope mapping was coated onto a Nunc MaxiSorp tube (Nunc) at 50 μg/mL in 3 mL 0.1 M sodium bicarbonate solution, pH 8 and incubated overnight. The tube was blocked with 3% BSA solution in bicarbonate solution. Then, 10^11 input phage in PBS+0.1% Tween-20 was allowed to bind, followed by ten consecutive washes with 0.1% Tween-20 to wash away non-binding phage. Remaining phage were eluted with 1 mL 0.2 M glycine for 10 minutes at room temperature with gentle agitation, followed by neutralization with 150 μL 1 M Tris-HCl pH 9. Eluted phage were amplified and panned again with 10^11 input phage, using 0.5% Tween-20 during the wash steps to increase selection stringency. DNA from 24 plaques of the eluted phage from the second round was isolated using the Qiaprep M13 Spin kit (Qiagen) and sequenced. Binding of clonal phage was confirmed using an ELISA assay, where the mapped antibody or a control antibody was coated onto an ELISA plate, blocked, and exposed to each clone phage. Phage binding was detected using horseradish peroxidase conjugated anti-M13 antibody (GE Healthcare), and the 1-Step Turbo TMB ELISA solution (Pierce). Phage peptide sequences from specifically binding phage were aligned using Vector NTI (Life Technologies) against the antigen ECD peptide sequence to determine the epitope of binding.
Selected antibodies that bound to a discontinuous epitope were mapped using the technique described by Chao et al. (2007). Libraries of SEZ6 ECD mutants were generated with error prone PCR using nucleotide analogues 8-oxo-2′deoxyguanosine-5′-triphosphate and 2′-deoxy-p-nucleoside-5′triphosphate (both from TriLink Bio) for a target mutagenesis rate of one amino acid mutation per clone. These were transformed into a yeast display format. Using the technique described above for domain-level mapping, the library was stained for c-myc and antibody binding at 50 nM. […] These clones were re-grown, and subjected to another round of FACS sorting for loss of binding to the target antibody. Using the Zymoprep Yeast Plasmid Miniprep kit (Zymo Research), individual ECD clones were isolated and sequenced. Where necessary, mutations were reformatted as single-mutant ECD clones using the Quikchange site directed mutagenesis kit (Agilent).
Individual ECD clones were next screened to determine whether loss of binding was due to a mutation in the epitope, or a mutation that caused misfolding. Mutations that involved cysteine, proline, and stop codons were automatically discarded due to the high likelihood of a misfolding mutation. Remaining ECD clones were then screened for binding to a non-competing, conformationally specific antibody. ECD clones that lost binding to non-competing, conformationally specific antibodies were concluded to contain misfolding mutations, whereas ECD clones that retained equivalent binding as wild type SEZ6 ECD were concluded to be properly folded. Mutations in the ECD clones in the latter group were concluded to be in the epitope. […]

LU100, a SCLC tumor = assay: Fab-saporin cytotoxicity in NTX tumor cells; format: cell-based, human; details: 50 and 500 pM antibody with Fab-saporin, seven days
Experimental: To corroborate the results of Example 14 and determine whether SEZ6 modulators can mediate toxin internalization and cell killing of human tumor cells (as opposed to engineered cells), mouse lineage-depleted NTX cells were plated and subsequently exposed to anti-SEZ6 antibodies and Fab-saporin.
(§3) NTX tumors were dissociated into a single cell suspension and plated on Primaria™ plates (BD Biosciences) in growth factor supplemented serum free media as is known in the art. After culturing the cells for one day at 37° C./5% CO2/5% O2, they were treated with a control (IgG1, IgG2a or IgG2b) or a murine SEZ6 modulator and Fab-saporin as described in Example 14. After seven days, the modulator-mediated saporin cytotoxicity was assessed by quantifying the remaining number of live cells using Cell Titer Glo.

rat SEZ6 = assay: Flow cytometry cross reactivity, RIN-m5F cells; format: binding; details: 5 μg/mL antibody
Experimental: as §1, §2

LU64, a SCLC tumor = assay: ADC cytotoxicity in NTX tumor cells in vitro; format: cell-based, human; details: compared to control msIgG1
Experimental: as §3
(§4) Mouse lineage-depleted NTX tumor cells were exposed to anti-SEZ6 ADCs or a mouse isotype control (msIgG1) using the same method as described in Example 15, except that Fab-saporin was not added.

[1] = tested on: OV26, a NET ovarian tumor; assay: ADC cytotoxicity in NTX tumor cells in vitro; format: cell-based, human; details: compared to control msIgG1
Experimental: as §3, §4

mouse SEZ6 = target: T2, mouse SEZ6 (Mus musculus, UniProt Q7TSK2); assay: Flow cytometry cross reactivity, Neuro2a cells; format: binding; details: 5 μg/mL antibody
T2 construct: Neuro2a (ATCC Cat # CCL131), and RIN-m5F (ATCC cat # CRL-11605) cell lines which express mouse SEZ6 and rat SEZ6; host or cells: Neuro2a
Experimental: as §1, §2

SEZ6L2 = target: T3, SEZ6L2 (Homo sapiens, UniProt Q6UXD5, INS830AYEELLDNRKLEV); assay: ELISA cross reactivity to family member SEZ6L2; format: binding; set-up: key to binds SEZ6 family member SEZ6L2 (dagger): *: antibodies that bind SEZ6 family members SEZ6L and SEZ6L2 are designated with an asterisk and/or a dagger, respectively; †: antibodies that bind SEZ6 family members SEZ6L and SEZ6L2 are designated with an asterisk and/or a dagger, respectively
T3 construct: IgK signal peptide (N, cleaved yes); made in house; host or cells: HEK-293T or CHO-S
Experimental: To determine cross reactivity to family member proteins, SEZ6L and SEZ6L2, an ELISA-based assay was used. Plates were coated with SEZ6, SEZ6L, or SEZ6L2 proteins at 0.2 μg/mL in PBS overnight. After washing with PBS containing 0.05% (v/v) Tween 20 (PBST), the wells were blocked with 2% (w/v) BSA in PBS (PBSA), 100 μL/well for 1 hour at room temperature. Antibody was then added at 1 μg/mL in 100 μL PBSA for 1 hour at room temperature. After washing with PBST, 100 μL/well HRP-labeled goat anti-mouse IgG diluted 1:2,000 in PBSA for 1 hour at room temperature. The plates were washed and 100 μL/well of the TMB substrate solution (Thermo Scientific 34028) was added for 15 minutes at room temperature. After developing, an equal volume of 2M H2SO4 was added to stop substrate development and analyzed by spectrophotometer at OD 450. […] As discussed above, such pan-SEZ6 antibodies are compatible with the teachings herein and may be used in conjunction with the disclosed methods.

T3 sequence (Q6UXD5 with tags, fused parts or gaps with the stated changes): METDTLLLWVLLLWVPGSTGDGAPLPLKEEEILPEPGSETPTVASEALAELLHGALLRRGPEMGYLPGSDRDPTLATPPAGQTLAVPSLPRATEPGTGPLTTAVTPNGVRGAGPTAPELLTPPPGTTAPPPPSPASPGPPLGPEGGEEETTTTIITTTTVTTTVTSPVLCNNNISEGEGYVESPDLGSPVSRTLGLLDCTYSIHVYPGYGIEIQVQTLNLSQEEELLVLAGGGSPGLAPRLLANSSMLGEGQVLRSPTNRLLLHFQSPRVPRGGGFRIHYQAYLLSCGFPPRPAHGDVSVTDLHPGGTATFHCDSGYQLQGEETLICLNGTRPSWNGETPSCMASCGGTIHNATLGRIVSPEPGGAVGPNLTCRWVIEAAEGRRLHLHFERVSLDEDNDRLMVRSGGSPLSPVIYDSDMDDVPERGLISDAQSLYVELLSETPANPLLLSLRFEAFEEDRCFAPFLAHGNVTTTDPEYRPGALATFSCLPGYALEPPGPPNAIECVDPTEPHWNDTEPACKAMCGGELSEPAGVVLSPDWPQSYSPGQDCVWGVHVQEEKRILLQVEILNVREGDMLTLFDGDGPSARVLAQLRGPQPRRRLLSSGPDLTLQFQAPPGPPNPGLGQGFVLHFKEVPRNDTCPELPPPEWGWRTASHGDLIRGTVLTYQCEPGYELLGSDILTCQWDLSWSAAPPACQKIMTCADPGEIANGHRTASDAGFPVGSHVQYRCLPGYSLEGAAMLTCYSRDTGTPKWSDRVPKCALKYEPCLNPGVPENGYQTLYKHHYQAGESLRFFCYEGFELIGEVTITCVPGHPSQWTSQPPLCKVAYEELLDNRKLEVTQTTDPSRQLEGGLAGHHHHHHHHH
rat SEZ6, sequence (as listed by the source): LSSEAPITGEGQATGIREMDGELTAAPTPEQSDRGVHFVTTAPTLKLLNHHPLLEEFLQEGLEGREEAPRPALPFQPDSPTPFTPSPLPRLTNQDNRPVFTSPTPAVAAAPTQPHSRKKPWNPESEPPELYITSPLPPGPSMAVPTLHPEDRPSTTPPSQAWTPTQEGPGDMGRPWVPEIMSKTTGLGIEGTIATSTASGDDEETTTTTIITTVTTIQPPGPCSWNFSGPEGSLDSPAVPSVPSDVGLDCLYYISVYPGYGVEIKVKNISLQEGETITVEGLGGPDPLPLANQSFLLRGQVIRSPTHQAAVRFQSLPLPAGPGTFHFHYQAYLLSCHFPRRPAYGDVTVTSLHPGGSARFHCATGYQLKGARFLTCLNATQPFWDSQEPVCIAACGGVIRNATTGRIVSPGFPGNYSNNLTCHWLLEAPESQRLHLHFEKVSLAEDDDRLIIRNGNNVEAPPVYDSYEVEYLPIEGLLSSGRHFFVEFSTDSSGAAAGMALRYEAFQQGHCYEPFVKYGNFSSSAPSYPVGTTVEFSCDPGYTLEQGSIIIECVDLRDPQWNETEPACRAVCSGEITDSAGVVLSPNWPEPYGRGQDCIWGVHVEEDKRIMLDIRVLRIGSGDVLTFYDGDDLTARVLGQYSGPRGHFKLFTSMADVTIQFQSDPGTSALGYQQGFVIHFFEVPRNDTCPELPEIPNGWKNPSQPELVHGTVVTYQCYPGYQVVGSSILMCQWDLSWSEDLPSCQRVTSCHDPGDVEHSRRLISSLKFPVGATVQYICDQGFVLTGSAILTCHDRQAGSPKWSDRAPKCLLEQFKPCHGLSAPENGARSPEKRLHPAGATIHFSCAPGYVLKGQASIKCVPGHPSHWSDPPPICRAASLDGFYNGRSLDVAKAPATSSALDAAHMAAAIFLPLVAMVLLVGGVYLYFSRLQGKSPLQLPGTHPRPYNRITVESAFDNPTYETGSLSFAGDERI
T2 sequence (Q7TSK2 20-991): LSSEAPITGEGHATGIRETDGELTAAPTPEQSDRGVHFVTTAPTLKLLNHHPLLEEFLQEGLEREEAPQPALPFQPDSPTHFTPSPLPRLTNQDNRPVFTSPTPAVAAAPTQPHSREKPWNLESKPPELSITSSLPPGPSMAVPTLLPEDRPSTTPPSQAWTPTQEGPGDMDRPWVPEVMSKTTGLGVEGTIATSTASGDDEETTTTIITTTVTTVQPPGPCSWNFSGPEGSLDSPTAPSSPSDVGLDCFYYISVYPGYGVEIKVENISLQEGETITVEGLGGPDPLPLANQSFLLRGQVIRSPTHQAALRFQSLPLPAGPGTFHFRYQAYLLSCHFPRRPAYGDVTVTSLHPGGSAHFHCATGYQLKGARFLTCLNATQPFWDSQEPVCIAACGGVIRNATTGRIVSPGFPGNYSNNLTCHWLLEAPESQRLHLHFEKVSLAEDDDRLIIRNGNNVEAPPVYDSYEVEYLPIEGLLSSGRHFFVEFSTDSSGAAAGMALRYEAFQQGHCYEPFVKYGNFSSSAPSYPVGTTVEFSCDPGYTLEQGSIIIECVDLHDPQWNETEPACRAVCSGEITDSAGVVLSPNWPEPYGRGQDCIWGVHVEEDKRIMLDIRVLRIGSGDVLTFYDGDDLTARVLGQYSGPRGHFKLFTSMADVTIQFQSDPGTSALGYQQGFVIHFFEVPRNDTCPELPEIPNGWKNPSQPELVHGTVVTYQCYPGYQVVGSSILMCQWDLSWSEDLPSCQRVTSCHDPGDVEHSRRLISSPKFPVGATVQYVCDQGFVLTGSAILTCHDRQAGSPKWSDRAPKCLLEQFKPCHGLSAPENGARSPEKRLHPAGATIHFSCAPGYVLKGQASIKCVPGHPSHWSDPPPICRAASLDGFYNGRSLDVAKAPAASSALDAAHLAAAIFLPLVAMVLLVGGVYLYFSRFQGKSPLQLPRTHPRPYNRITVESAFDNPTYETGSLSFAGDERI
T1 sequence (Q53EL9 20-923): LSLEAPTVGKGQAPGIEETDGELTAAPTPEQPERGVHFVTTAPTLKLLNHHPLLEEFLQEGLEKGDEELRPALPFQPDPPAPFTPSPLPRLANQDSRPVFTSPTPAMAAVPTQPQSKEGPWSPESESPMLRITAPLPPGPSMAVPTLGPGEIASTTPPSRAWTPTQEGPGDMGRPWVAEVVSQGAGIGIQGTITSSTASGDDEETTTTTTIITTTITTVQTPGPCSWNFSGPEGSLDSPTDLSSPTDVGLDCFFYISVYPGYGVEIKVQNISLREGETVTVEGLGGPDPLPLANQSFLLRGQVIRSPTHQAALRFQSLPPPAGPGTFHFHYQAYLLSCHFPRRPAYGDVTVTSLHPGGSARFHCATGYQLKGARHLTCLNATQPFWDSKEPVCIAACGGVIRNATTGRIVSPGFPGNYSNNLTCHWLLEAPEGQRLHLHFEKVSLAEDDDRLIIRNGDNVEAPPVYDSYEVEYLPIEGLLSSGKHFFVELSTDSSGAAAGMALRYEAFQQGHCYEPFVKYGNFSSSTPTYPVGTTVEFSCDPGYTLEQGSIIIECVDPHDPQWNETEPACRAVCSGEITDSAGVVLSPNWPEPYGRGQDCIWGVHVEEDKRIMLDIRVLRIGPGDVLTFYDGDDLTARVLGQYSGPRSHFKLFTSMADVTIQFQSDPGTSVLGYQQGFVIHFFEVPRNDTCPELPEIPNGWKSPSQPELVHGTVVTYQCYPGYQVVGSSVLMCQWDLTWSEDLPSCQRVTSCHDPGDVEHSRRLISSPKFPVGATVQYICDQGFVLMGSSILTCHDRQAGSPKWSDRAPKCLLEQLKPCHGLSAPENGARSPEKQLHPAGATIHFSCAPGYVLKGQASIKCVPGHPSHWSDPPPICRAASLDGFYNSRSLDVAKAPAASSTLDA

Molecule	number of tumor cells, LU100 (LU100, a SCLC tumor)	cross reactivity to rat SEZ6 (rat SEZ6)	percent viable cells, LU64 (LU64, a SCLC tumor)	percent viable cells, OV26 [1]	further results
SC17.34: murine anti-SEZ6 antibody (antibody, V domains shown, Murine SC17.34 VH; Murine SC17.34 VL, murine anti-SEZ6 antibody) VH: EVQLQQSGPELVKPGSSVKISCKASGYTFTDYNMDWVKQSHGKRLEWIGYIYPDNGGAGYNQKFKGKATLTVDKSSSTAYMELRSLTSEDSAVYYCSRSITTAWFAYWGQGTLVTVSA VL: DIKMTQSPSSMYASLGERVTITCKASQDINSYLSWFQQKPGKSPKTLIYRANRLVDGVPSRFSGSGSGQDYSLTISSLEYEDMGIYYCLQYDEFPPTFGGGTKLEIK	reduction of tumor cells	cross reactive	–	–	cross reactivity to cynomolgus SEZ6 (cynomolgus SEZ6): cross reactive; Discontinuous (SEZ6 ECD): Yes
SC17.34-ADC2: SC17.34 antibody conjugated to PBD dimer cytotoxic agent (and linker) ADC2 (conjugate) VL: DIKMTQSPSSMYASLGERVTITCKASQDINSYLSWFQQKPGKSPKTLIYRANRLVDGVPSRFSGSGSGQDYSLTISSLEYEDMGIYYCLQYDEFPPTFGGGTKLEIK VH: EVQLQQSGPELVKPGSSVKISCKASGYTFTDYNMDWVKQSHGKRLEWIGYIYPDNGGAGYNQKFKGKATLTVDKSSSTAYMELRSLTSEDSAVYYCSRSITTAWFAYWGQGTLVTVSA	–	–	increased reduction in percent viable cells	increased reduction in percent viable cells	–
SC17.24-ADC2: SC17.24 antibody conjugated to PBD dimer cytotoxic agent (and linker) ADC2 (conjugate) VL: DIVMSQSPSSLAVSVGEKVTMSCKSSQSLLYSSNQKSYLAWYQQKPGQSPKLLIYWASTRESGVPDRFTGSGSGTDFTLTISSVQAEDLAVYYCKQSYNLRTFGGGTKLEIK VH: QVQLQQSDAELVKPGASVKISCKVSGYTFTDHTIHWMKQRPEQGLEWIGYIYPRDGSTKYNEEFKGKATLTADKSSSTAYMQLNSLTSEDSAVYFCARSYSNYFDYWGQGTTLTVSS	–	–	increased reduction in percent viable cells	increased reduction in percent viable cells	–
SC17.28-ADC2: SC17.28 antibody conjugated to PBD dimer cytotoxic agent (and linker) ADC2 (conjugate) VL: DILLTQSPAILSVSPGEGVSFSCRASQSIGTSIHWYQQRTNGSPRLLIKYASESISGIPSRFSGSGSGTDFTLRINSLESEDIADYYCQQSNSWPLTFGAGTKLELK VH: QVHLPQSRPELVKPGASVKISCKASGYGFTRSYIHWVKQRPGQGLEWIGYISSGSGGTTYNQKFKGKASLTADNPSSTAYMHLSSLTSEDSAIYFCARGGVRYFDVWGAGTTVTVSS	–	–	increased reduction in percent viable cells	increased reduction in percent viable cells	–
SC17.19: murine anti-SEZ6 antibody (antibody, V domains shown, Murine SC17.19 VH; Murine SC17.19 VL, murine anti-SEZ6 antibody) VH: DVQLQESGPGLVKPSQSLSVTCTVTGYSITSSYTWNWIRQFPGNKLEWMGYIHYSGSTNYNPSLRSRISITRDTSKNQFFLQLNSVTTEDTATYYCARSRYYYDAYGFAYWGQGTLVTVSA VL: DIVLTQSPASLAVSLGQRAAISCKPSQSVDYDGDSYMNWYQQKPGQPPKLLIYAASNLESGIPARFSGSGSGTDFTLNIHPVEEEDAATYYCHQINDDPWTFGGGTKLK	reduction of tumor cells	cross reactive	–	–	cross reactivity to murine SEZ6 (mouse SEZ6): cross reactive; cross reactivity with SEZ6L2 (SEZ6L2; ELISA, antibody 1 μg/mL): cross-reactive; binds SEZ6 family member SEZ6L2 (dagger) (SEZ6L2; mark in Table 5): SC17.SC17, SC17.19^†, SC17.93, SC17.102, SC17.121,
